Data: the supplement of paper PMC9112550, “Optimization of the antimicrobial peptide Bac7 by deep mutational scanning” (BMC Biology, 2022)

Tested on: Escherichia coli TOP10
Assay: shrunken log2 fold change of peptide-encoding DNA abundance (4.5 h post-induction vs induction); higher = less antimicrobial activity (less host growth inhibition)
Details: time post-induction: 4.5 h; library: site-saturation at positions 5, 18, 19, 20
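Also: peptides expressed intracellularly from a pBAD plasmid library in pooled LB shake-flask culture, induced with 0.3% L-arabinose, DNA abundance read by NGS, three biological replicates, DESeq2 with apeglm shrinkage.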

Sequence	shrunken log2 fold change
RRIRARPPRLPRPRPRPFKVPRP	0.0346
RRIRARPPRLPRPRPRPFKYPRP	-0.0956
RRIRARPPRLPRPRPRPFLDPRP	0.116
RRIRARPPRLPRPRPRPFLMPRP	0.791
RRIRARPPRLPRPRPRPFLNPRP	-0.248
RRIRARPPRLPRPRPRPFPGPRP	-0.116
RRIRARPPRLPRPRPRPFPIPRP	0.264
RRIRARPPRLPRPRPRPFPWPRP	0.477
RRIRARPPRLPRPRPRPFQAPRP	0.0111
RRIRARPPRLPRPRPRPFRDPRP	-0.169
RRIRARPPRLPRPRPRPFRKPRP	0.00339
RRIRARPPRLPRPRPRPFRPPRP	0.153
RRIRARPPRLPRPRPRPFSAPRP	-0.0294
RRIRARPPRLPRPRPRPFSQPRP	-0.0436
RRIRARPPRLPRPRPRPFWNPRP	0.127
RRIRARPPRLPRPRPRPFYSPRP	-0.0849
RRIRARPPRLPRPRPRPFYTPRP	-0.685
RRIRARPPRLPRPRPRPFYWPRP	-0.24
RRIRARPPRLPRPRPRPGCGPRP	0.887
RRIRARPPRLPRPRPRPGCMPRP	0.727

Sequence	shrunken log2 fold change
RRIRARPPRLPRPRPRPGCPPRP	0.343
RRIRARPPRLPRPRPRPGDKPRP	0.173
RRIRARPPRLPRPRPRPGFSPRP	0.329
RRIRARPPRLPRPRPRPGFTPRP	0.204
RRIRARPPRLPRPRPRPGKCPRP	0.0981
RRIRARPPRLPRPRPRPGKYPRP	-0.152
RRIRARPPRLPRPRPRPGLEPRP	0.629
RRIRARPPRLPRPRPRPGLKPRP	0.469
RRIRARPPRLPRPRPRPGMPPRP	0.128
RRIRARPPRLPRPRPRPGNMPRP	-0.0598
RRIRARPPRLPRPRPRPGQLPRP	0.359
RRIRARPPRLPRPRPRPGQQPRP	0.209
RRIRARPPRLPRPRPRPGQVPRP	0.402
RRIRARPPRLPRPRPRPGRYPRP	0.54
RRIRARPPRLPRPRPRPGSCPRP	0.32
RRIRARPPRLPRPRPRPGTPPRP	0.642
RRIRARPPRLPRPRPRPGTQPRP	0.316
RRIRARPPRLPRPRPRPGWLPRP	0.285
RRIRARPPRLPRPRPRPGWPPRP	0.789
RRIRARPPRLPRPRPRPGWVPRP	0.29

Sequence	shrunken log2 fold change
RRIRARPPRLPRPRPRPGYEPRP	0.246
RRIRARPPRLPRPRPRPHALPRP	0.112
RRIRARPPRLPRPRPRPHCAPRP	0.149
RRIRARPPRLPRPRPRPHCCPRP	0.134
RRIRARPPRLPRPRPRPHCVPRP	0.0669
RRIRARPPRLPRPRPRPHDLPRP	0.084
RRIRARPPRLPRPRPRPHDVPRP	0.0276
RRIRARPPRLPRPRPRPHEVPRP	0.101
RRIRARPPRLPRPRPRPHFFPRP	1.8
RRIRARPPRLPRPRPRPHGNPRP	-0.0231
RRIRARPPRLPRPRPRPHGYPRP	0.0466
RRIRARPPRLPRPRPRPHHGPRP	-0.122
RRIRARPPRLPRPRPRPHHPPRP	-0.242
RRIRARPPRLPRPRPRPHHQPRP	-0.0146
RRIRARPPRLPRPRPRPHHRPRP	0.00443
RRIRARPPRLPRPRPRPHLYPRP	-0.218
RRIRARPPRLPRPRPRPHMSPRP	-0.181
RRIRARPPRLPRPRPRPHNNPRP	-0.363
RRIRARPPRLPRPRPRPHQSPRP	0.265
RRIRARPPRLPRPRPRPHQYPRP	-0.278
